Measured values reported in patent CN116178545A (GUANGDONG FEIPENG PHARMACEUTICAL CO LTD, dated 2023).
Substitutions are numbered along the chain they refer to.

T1: 重组人PD-L2蛋白 (human, UniProt Q9BQ51 20-219)
T1 construct: The words 携带hFc标签的 stand before the first protein of the list; also called Acrobiosystem Cat.PD2-H5251
T1 sequence (looked up): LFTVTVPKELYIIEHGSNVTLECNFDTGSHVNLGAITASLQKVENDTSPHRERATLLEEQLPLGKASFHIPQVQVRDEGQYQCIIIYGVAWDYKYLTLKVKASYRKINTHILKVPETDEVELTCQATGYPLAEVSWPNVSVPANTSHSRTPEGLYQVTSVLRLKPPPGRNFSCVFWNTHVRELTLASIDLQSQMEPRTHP

T2: 重组人ICOS蛋白 (human, UniProt Q9Y6W8 21-140)
T2 construct: The words 携带hFc标签的 stand before the first protein of the list; also called Acrobiosystem Cat.ICS-H5250
T2 sequence (looked up): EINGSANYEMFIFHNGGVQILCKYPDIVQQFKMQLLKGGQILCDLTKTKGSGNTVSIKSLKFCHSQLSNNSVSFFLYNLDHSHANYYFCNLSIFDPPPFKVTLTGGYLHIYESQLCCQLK

T3: 重组人ICOSLG蛋白 (human, UniProt O75144 19-258)
T3 construct: The words 携带hFc标签的 stand before the first protein of the list; also called Acrobiosystem Cat.B72-H5254
T3 sequence (looked up): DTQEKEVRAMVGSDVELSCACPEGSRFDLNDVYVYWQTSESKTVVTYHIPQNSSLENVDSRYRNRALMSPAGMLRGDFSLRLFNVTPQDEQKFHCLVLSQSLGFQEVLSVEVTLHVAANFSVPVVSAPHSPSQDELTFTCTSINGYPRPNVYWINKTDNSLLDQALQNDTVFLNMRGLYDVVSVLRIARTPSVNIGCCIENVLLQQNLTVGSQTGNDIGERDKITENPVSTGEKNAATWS

T4: 重组人CD276蛋白 (human, UniProt Q5ZPR3-2 29-245)
T4 construct: The words 携带hFc标签的 stand before the first protein of the list; also called B7-H3; Acrobiosystem Cat.B73-H5253
T4 sequence (looked up): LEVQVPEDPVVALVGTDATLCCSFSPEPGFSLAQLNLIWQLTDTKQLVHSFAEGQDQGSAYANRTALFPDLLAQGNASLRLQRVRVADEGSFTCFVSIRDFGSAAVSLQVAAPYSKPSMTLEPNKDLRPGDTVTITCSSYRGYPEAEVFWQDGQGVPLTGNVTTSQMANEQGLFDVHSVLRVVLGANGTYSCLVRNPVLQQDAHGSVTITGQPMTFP

T5: 重组人CD86蛋白 (human, UniProt P42081 26-247)
T5 construct: The words 携带hFc标签的 stand before the first protein of the list; also called Acrobiosystem Cat.CD6-H5257
T5 sequence (looked up): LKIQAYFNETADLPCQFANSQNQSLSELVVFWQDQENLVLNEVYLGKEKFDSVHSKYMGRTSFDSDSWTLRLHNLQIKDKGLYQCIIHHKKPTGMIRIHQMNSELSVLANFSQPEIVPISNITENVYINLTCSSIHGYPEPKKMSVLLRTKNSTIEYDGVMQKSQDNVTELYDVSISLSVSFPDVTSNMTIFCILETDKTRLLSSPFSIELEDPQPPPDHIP

B1: 176L4H2 (antibody, V domains shown)
VH: QVQLQESGPGLVKPSETLSLTCAVYGDSITSGYWNWIRKPPGKKLEYIGYISYTGSTYQNPSLKSRITMSRDTSKNQYYLKLSSVTAADTAVYYCARSRAWIRTYFDYWGQGTLVTVSS
VL: DIQMTQSPSSLSASVGDRVTITCSVSSSISSSNLHWYQQKPGKAPKPWIYGTSNLASGVPSRFSGSGSGTDYTLTISSLQPEDFATYYCQQWSSYPLTFGQGTKLEIKR
notes: Whole humanized mAb expressed in 293 cells; detected with anti-human IgG; also called 抗人PD-L1人源化抗体176L4H2
B2: 176L4H3 (antibody, V domains shown)
VH: B1 VH with M69F
VL: B1 VL
notes: Whole humanized mAb expressed in 293 cells; detected with anti-human IgG; also called 抗人PD-L1人源化抗体176L4H3
B3: 176L4H4 (antibody, V domains shown)
VH: B1 VH with A23S, I48M, M69F
VL: B1 VL
notes: Whole humanized mAb expressed in 293 cells; detected with anti-human IgG; also called 抗人PD-L1人源化抗体176L4H4
B4: 176L5H2 (antibody, V domains shown)
VH: B1 VH
VL: B1 VL with D1E, Q3V, M4L
notes: Whole humanized mAb expressed in 293 cells; detected with anti-human IgG; also called 抗人PD-L1人源化抗体176L5H2
B5: 176L4H1 (antibody, V domains shown)
VH: B1 VH with K44G
VL: B1 VL
notes: Whole humanized mAb expressed in 293 cells; detected with anti-human IgG; also called 抗人PD-L1人源化抗体176L4H1

Target: T1, 重组人PD-L2蛋白
Assay: ELISA, protein coated at 1μg/ml

| Binder | binding result |
| --- | --- |
| B1 | no binding (tested: 10μg/ml) |
| B2 | no binding (tested: 10μg/ml) |
| B3 | no binding (tested: 10μg/ml) |
| B4 | no binding (tested: 10μg/ml) |
| B5 | no binding (tested: 10μg/ml) |

Target: T6, 重组人PD-1蛋白(自产) (human, UniProt Q15116 25-167)
T6 construct: The words 携带hFc标签的 stand before the first protein of the list
T6 sequence (Q15116 25-167): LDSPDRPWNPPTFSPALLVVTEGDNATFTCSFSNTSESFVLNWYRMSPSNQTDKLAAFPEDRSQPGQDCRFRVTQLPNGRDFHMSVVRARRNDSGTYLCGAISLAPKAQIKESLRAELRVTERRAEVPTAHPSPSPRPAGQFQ
Assay: ELISA, protein coated at 1μg/ml

| Binder | binding result |
| --- | --- |
| B1 | no binding (tested: 10μg/ml) |
| B2 | no binding (tested: 10μg/ml) |
| B3 | no binding (tested: 10μg/ml) |
| B4 | no binding (tested: 10μg/ml) |
| B5 | no binding (tested: 10μg/ml) |

Target: T2, 重组人ICOS蛋白
Assay: ELISA, protein coated at 1μg/ml

| Binder | binding result |
| --- | --- |
| B1 | no binding (tested: 10μg/ml) |
| B2 | no binding (tested: 10μg/ml) |
| B3 | no binding (tested: 10μg/ml) |
| B4 | no binding (tested: 10μg/ml) |
| B5 | no binding (tested: 10μg/ml) |

Target: T3, 重组人ICOSLG蛋白
Assay: ELISA, protein coated at 1μg/ml

| Binder | binding result |
| --- | --- |
| B1 | no binding (tested: 10μg/ml) |
| B2 | no binding (tested: 10μg/ml) |
| B3 | no binding (tested: 10μg/ml) |
| B4 | no binding (tested: 10μg/ml) |
| B5 | no binding (tested: 10μg/ml) |

Target: T4, 重组人CD276蛋白
Assay: ELISA, protein coated at 1μg/ml

| Binder | binding result |
| --- | --- |
| B1 | no binding (tested: 10μg/ml) |
| B2 | no binding (tested: 10μg/ml) |
| B3 | no binding (tested: 10μg/ml) |
| B4 | no binding (tested: 10μg/ml) |
| B5 | no binding (tested: 10μg/ml) |

Target: T5, 重组人CD86蛋白
Assay: ELISA, protein coated at 1μg/ml

| Binder | binding result |
| --- | --- |
| B1 | no binding (tested: 10μg/ml) |
| B2 | no binding (tested: 10μg/ml) |
| B3 | no binding (tested: 10μg/ml) |
| B4 | no binding (tested: 10μg/ml) |
| B5 | no binding (tested: 10μg/ml) |

Target: T7, 重组人CD28蛋白 (human, UniProt P10747 19-152)
T7 construct: The words 携带hFc标签的 stand before the first protein of the list; also called Acrobiosystem Cat.CD8-H525a
Assay: ELISA, protein coated at 1μg/ml

| Binder | binding result |
| --- | --- |
| B1 | no binding (tested: 10μg/ml) |
| B2 | no binding (tested: 10μg/ml) |
| B3 | no binding (tested: 10μg/ml) |
| B4 | no binding (tested: 10μg/ml) |
| B5 | no binding (tested: 10μg/ml) |

Target: T8, 重组人CTLA-4蛋白 (human, UniProt P16410 37-162)
T8 construct: The words 携带hFc标签的 stand before the first protein of the list; also called Acrobiosystem Cat.CT4-H5255
T8 sequence (P16410 37-162): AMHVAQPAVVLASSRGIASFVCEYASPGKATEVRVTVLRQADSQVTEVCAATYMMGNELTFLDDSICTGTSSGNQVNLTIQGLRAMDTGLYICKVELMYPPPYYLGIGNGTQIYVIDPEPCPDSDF
Assay: ELISA, protein coated at 1μg/ml

| Binder | binding result |
| --- | --- |
| B1 | no binding (tested: 10μg/ml) |
| B2 | no binding (tested: 10μg/ml) |
| B3 | no binding (tested: 10μg/ml) |
| B4 | no binding (tested: 10μg/ml) |
| B5 | no binding (tested: 10μg/ml) |

Target: T9, 小鼠PD-L1 (on CHO cells) (mouse, UniProt Q9EP73 19-290)
T9 construct: whole, on cells; also called CHO-mPD-L1稳定细胞株; 稳定表达全长小鼠PD-L1的CHO
T9 sequence (Q9EP73 19-290): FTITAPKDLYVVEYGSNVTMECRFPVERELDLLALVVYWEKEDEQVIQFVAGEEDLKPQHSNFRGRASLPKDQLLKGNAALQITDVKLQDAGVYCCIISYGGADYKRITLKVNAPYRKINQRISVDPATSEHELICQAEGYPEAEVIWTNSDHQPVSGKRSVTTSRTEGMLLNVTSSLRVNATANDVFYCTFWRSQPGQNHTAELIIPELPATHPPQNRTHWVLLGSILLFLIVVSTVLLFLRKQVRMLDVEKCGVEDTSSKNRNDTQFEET
Assay: flow cytometry on CHO-mPD-L1 cells

| Binder | binding result |
| --- | --- |
| B1 | no binding (tested: 20μg/ml) |
| B2 | no binding (tested: 20μg/ml) |
| B3 | no binding (tested: 20μg/ml) |
| B4 | no binding (tested: 20μg/ml) |
| B5 | no binding (tested: 20μg/ml) |

Target: T10, 人PD-L1 (on cells) (human, UniProt Q9NZQ7 19-290)
T10 construct: whole, on cells; One molecule for human PD-L1 on CHO-hPD-L1, on IFNγ-stimulated A375 and on CHO-hPD-L1-OKT3 cells; the cell is named under assay; also called CHO-hPD-L1稳定细胞株; 稳定表达人PD-L1的CHO
T10 sequence (Q9NZQ7 19-290): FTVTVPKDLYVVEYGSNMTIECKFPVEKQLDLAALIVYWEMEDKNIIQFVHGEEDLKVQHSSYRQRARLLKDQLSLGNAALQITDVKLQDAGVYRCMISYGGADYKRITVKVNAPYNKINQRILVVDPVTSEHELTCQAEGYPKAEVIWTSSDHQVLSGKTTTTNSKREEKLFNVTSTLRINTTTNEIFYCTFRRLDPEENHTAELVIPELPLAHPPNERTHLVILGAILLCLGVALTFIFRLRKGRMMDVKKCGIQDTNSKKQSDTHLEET
Assay: flow cytometry on IFNγ-stimulated A375 cells

| Binder | EC50 |
| --- | --- |
| B1 | ~0.2 nM |
| B2 | ~0.2 nM |
| B3 | ~0.2 nM |
| B4 | ~0.2 nM |
| B5 | ~0.2 nM |

Target: T11, hPD-L1-his (human, UniProt Q9NZQ7 19-238)
T11 construct: extracellular domain; also called 携带his标签的人PD-L1胞外区重组蛋白; not shown: his tag
T11 sequence (Q9NZQ7 19-238): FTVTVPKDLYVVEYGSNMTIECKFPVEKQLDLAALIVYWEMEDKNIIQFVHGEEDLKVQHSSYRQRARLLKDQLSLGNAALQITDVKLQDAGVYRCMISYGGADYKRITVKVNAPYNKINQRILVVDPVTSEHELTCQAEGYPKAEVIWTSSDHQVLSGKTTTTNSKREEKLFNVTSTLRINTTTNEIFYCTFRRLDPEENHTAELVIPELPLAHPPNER
Assay: BLI (ForteBIO), hPD-L1-his on anti-Penta-HIS sensor

| Binder | Kd |
| --- | --- |
| B1 | 0.0848 nM |
| B2 | 0.08 nM |
| B3 | 0.0881 nM |
| B4 | 0.109 nM |
| B5 | 0.0084 nM |
